Biological target: dHtt-eGFP fusion protein (Drosophila Huntingtin with a C-terminal eGFP tag) (Drosophila)
Assay: affinity purification with mass spectrometry

Work on “CG8134/dHap40 (Drosophila HAP40), endogenous ~40 kDa protein (from UniProt Q9VXR6 1-345) (natural protein)” yielded a stoichiometry N of 1 molar ratio.
